These results are taken from IntAct's records for PubMed 17314515.

B1: Protein Vpx (Simian immunodeficiency virus (isolate PBj14/BCL-3)), P19508 (parent)
chain: MSDPRERIPPGNSGEETIGEAFDWLDRTVEEINRAAVNHLPRELIFQVWRRSWEYWHDEMGMSVSYTKYRYLCLIQKAMFMHCKKGCRCLGGEHGAGGWRPGPPPPPPPGLA
B2: Protein Vpr (Human immunodeficiency virus type 1 group M subtype B (isolate BRU/LAI)), P05928 (parent)
chain: MEQAPEDQGPQREPHNEWTLELLEELKNEAVRHFPRIWLHGLGQHIYETYGDTWAGVEAIIRILQQLLFIHFRIGCRHSRIGVTQQRRARNGASRS

In the first assay the parent is B1. The note with it: with DCAF1, Q9Y4B6-3.
Target sequence in this assay (Q9Y4B6 other isoform, or with tags, fused parts or gaps): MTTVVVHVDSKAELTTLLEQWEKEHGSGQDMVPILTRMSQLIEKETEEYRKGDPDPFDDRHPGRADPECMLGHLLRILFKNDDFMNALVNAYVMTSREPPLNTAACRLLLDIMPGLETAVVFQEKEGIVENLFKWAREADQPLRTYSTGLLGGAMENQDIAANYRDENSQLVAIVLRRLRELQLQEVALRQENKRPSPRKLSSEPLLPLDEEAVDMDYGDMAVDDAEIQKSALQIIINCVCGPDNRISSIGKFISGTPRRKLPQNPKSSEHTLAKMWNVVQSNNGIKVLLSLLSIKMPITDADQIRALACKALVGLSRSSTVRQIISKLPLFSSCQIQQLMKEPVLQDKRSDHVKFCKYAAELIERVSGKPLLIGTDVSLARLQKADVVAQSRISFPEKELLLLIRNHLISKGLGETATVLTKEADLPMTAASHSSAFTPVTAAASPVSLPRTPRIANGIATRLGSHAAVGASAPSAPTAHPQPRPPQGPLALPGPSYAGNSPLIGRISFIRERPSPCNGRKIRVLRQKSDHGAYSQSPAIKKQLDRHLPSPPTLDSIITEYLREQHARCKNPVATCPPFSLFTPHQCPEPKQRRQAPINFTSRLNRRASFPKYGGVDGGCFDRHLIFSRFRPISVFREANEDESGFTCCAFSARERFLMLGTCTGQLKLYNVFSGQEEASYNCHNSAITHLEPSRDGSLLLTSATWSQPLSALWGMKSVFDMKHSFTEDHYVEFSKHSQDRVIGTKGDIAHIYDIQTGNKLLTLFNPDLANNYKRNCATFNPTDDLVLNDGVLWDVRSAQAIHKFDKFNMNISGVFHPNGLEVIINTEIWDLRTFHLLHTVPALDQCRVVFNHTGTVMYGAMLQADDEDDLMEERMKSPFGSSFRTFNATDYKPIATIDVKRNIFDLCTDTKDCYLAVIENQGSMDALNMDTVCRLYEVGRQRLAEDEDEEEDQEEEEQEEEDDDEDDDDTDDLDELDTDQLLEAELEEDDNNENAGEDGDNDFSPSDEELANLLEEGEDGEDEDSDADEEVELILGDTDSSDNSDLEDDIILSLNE
For the variant MSDPRERIPPGNSGEETIGEAFDWLDRTVEEINRAAVNHLPRELIFQVWRRSWEYWHDEMGMSVSYTKYRYLCLIRKAMFMHCKKGCRCLGGEHGAGGWRPGPPPPPPPGLA [Q76R], the “effect of a mutation on the interaction” value is “disrupting interaction”.

In a further assay the parent is B2. To be noted: with DCAF1, Q9Y4B6-3.
Target sequence in this assay (Q9Y4B6 other isoform, or with tags, fused parts or gaps): as the sequence (Q9Y4B6 other isoform, or with tags, fused parts or gaps) above
As for Q65A, the “effect of a mutation on the interaction” value is listed as “disrupting interaction”.

With MEQAPEDQGPQREPHNEWTLELLEELKNEAVRHFPRIWLHGLGQHIYETYGDTWAGVEAIIRILRQLLFIHFRIGCRHSRIGVTQQRRARNGASRS [Q65R], the “effect of a mutation on the interaction” value is recorded as “disrupting interaction”.
